This experiment concerns the target murine B7-2 (recombinant, expressed from rV-B7-2 in BSC-1 cells) (murine) (UniProt P42082). Nature of the experiment: flow cytometry, BSC-1 cells infected with rV-B7-2 (10 MOI), FITC-conjugated antibody. (A flow cytometer gives signals particle by particle.)
UniProt P42082, sequence (P42082 24-309): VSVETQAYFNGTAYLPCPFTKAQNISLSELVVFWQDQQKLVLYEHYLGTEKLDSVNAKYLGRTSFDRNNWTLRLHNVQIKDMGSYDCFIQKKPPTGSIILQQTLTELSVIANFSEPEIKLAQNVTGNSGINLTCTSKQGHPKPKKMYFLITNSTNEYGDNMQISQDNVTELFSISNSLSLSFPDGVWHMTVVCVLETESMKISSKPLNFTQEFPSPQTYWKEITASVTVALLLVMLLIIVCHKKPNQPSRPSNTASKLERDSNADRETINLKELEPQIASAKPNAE

Consider “Rat-anti-mouse B7-2 (GL-1) monoclonal antibody (Pharmingen)”, for which the mean fluorescence was 1800 and the percent of cells positive is 98.8%.
